Measurements: article PMC3188500
pKd: −log10 of the molar value.

Target: TATA binding protein (TBP) (UniProt P20226)
Assay: fluorescence (FAM/BHQ transcription factor beacon titration)
Conditions: 5 mM MgCl2; no depletant; value stated in text next to ref 35, may come from it; internal BHQ after the T at position 20; 50 mM sodium phosphate pH 7.0, 150 mM NaCl, 5 mM MgCl2, 25 °C; 10 nM labeled TF switch

Sequence of UniProt P20226 (P20226 whole entry): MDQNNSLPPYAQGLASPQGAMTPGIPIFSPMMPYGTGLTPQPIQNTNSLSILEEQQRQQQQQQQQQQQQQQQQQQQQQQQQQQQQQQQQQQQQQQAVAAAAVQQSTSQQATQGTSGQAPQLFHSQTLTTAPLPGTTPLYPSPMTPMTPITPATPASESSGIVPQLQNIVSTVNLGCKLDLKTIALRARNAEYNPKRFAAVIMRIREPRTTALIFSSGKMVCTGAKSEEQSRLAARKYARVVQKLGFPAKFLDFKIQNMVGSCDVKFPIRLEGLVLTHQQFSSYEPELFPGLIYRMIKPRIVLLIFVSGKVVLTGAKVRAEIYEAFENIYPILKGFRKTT

“TACTTTTATATAAATAAGTTGTGATTTTTATATATTTCAC [TFprobe (transcription factor beacon/switch)]” was tested, and the pKd was 7.35.
